# Measured values taken from the RNAGym collection of RNA variant scans (doi:10.1021/acssynbio.7b00057).
# B1: Pistol ribozyme (parent)
# chain: GGGUCGUUGUUCCAUAAUCGCGUGGAUAUGGCACGCAAGUUUCUACCGGGCACCGUAAAUGUCCGACUGGAGCCGUUCGGGCGGCUAUAAACAGACCUCAGGCCCGAAGCGUGGCGGCACCUGCCGCCGGUGGUAAAAAAGAUCGGAAGAGCACACGUCU
# Variants of: B1
# Assay: aptazyme ON/OFF ratio, guanine; higher = stronger switching; co-transcriptional cleavage with and without guanine
row,Variant,aptazyme ON/OFF ratio
1,GGGUCGGAAAAGUAUAAUCGCGUGGAUAUGGCACGCAAGUUUCUACCGGGCACCGUAAAUGUCCGACUGGAGCCGUUCGGGCGGCUAUAAACAGACCUCAGGCCCGAAGCGUGGCGGCACCUGCCGCCGGUGGUAAAAAAGAUCGGAAGAGCACACGUCU [U7G U8A G9A U10A U11A C12G C13U],1.14
2,GGGUCGGAAAAGAAUAAUCGCGUGGAUAUGGCACGCAAGUUUCUACCGGGCACCGUAAAUGUCCGACUGGAGCCGUUCGGGCGGCUAUAAACAGACCUCAGGCCCGAAGCGUGGCGGCACCUGCCGCCGGUGGUAAAAAAGAUCGGAAGAGCACACGUCU [U7G U8A G9A U10A U11A C12G C13A],1.1
3,GGGUCGGAAAAGGAUAAUCGCGUGGAUAUGGCACGCAAGUUUCUACCGGGCACCGUAAAUGUCCGACUGGAGCCGUUCGGGCGGCUAUAAACAGACCUCAGGCCCGAAGCGUGGCGGCACCUGCCGCCGGUGGUAAAAAAGAUCGGAAGAGCACACGUCU [U7G U8A G9A U10A U11A C12G C13G],1.15
4,GGGUCGGAAAUUAAUAAUCGCGUGGAUAUGGCACGCAAGUUUCUACCGGGCACCGUAAAUGUCCGACUGGAGCCGUUCGGGCGGCUAUAAACAGACCUCAGGCCCGAAGCGUGGCGGCACCUGCCGCCGGUGGUAAAAAAGAUCGGAAGAGCACACGUCU [U7G U8A G9A U10A C12U C13A],1.13
5,GGGUCGGAAAUUGAUAAUCGCGUGGAUAUGGCACGCAAGUUUCUACCGGGCACCGUAAAUGUCCGACUGGAGCCGUUCGGGCGGCUAUAAACAGACCUCAGGCCCGAAGCGUGGCGGCACCUGCCGCCGGUGGUAAAAAAGAUCGGAAGAGCACACGUCU [U7G U8A G9A U10A C12U C13G],1.07
6,GGGUCGGAAAUUUAUAAUCGCGUGGAUAUGGCACGCAAGUUUCUACCGGGCACCGUAAAUGUCCGACUGGAGCCGUUCGGGCGGCUAUAAACAGACCUCAGGCCCGAAGCGUGGCGGCACCUGCCGCCGGUGGUAAAAAAGAUCGGAAGAGCACACGUCU [U7G U8A G9A U10A C12U C13U],1.03
7,GGGUCGGAAAAUAAUAAUCGCGUGGAUAUGGCACGCAAGUUUCUACCGGGCACCGUAAAUGUCCGACUGGAGCCGUUCGGGCGGCUAUAAACAGACCUCAGGCCCGAAGCGUGGCGGCACCUGCCGCCGGUGGUAAAAAAGAUCGGAAGAGCACACGUCU [U7G U8A G9A U10A U11A C12U C13A],1.15
8,GGGUCGGAAAAUUAUAAUCGCGUGGAUAUGGCACGCAAGUUUCUACCGGGCACCGUAAAUGUCCGACUGGAGCCGUUCGGGCGGCUAUAAACAGACCUCAGGCCCGAAGCGUGGCGGCACCUGCCGCCGGUGGUAAAAAAGAUCGGAAGAGCACACGUCU [U7G U8A G9A U10A U11A C12U C13U],1.19
9,GGGUCGGAAAAUGAUAAUCGCGUGGAUAUGGCACGCAAGUUUCUACCGGGCACCGUAAAUGUCCGACUGGAGCCGUUCGGGCGGCUAUAAACAGACCUCAGGCCCGAAGCGUGGCGGCACCUGCCGCCGGUGGUAAAAAAGAUCGGAAGAGCACACGUCU [U7G U8A G9A U10A U11A C12U C13G],1.12
10,GGGUCGGAAUUUCAUAAUCGCGUGGAUAUGGCACGCAAGUUUCUACCGGGCACCGUAAAUGUCCGACUGGAGCCGUUCGGGCGGCUAUAAACAGACCUCAGGCCCGAAGCGUGGCGGCACCUGCCGCCGGUGGUAAAAAAGAUCGGAAGAGCACACGUCU [U7G U8A G9A C12U],1.12
11,GGGUCGGAAUUUAAUAAUCGCGUGGAUAUGGCACGCAAGUUUCUACCGGGCACCGUAAAUGUCCGACUGGAGCCGUUCGGGCGGCUAUAAACAGACCUCAGGCCCGAAGCGUGGCGGCACCUGCCGCCGGUGGUAAAAAAGAUCGGAAGAGCACACGUCU [U7G U8A G9A C12U C13A],1.13
12,GGGUCGGAAUUUGAUAAUCGCGUGGAUAUGGCACGCAAGUUUCUACCGGGCACCGUAAAUGUCCGACUGGAGCCGUUCGGGCGGCUAUAAACAGACCUCAGGCCCGAAGCGUGGCGGCACCUGCCGCCGGUGGUAAAAAAGAUCGGAAGAGCACACGUCU [U7G U8A G9A C12U C13G],1.1
13,GGGUCGGAAUUUUAUAAUCGCGUGGAUAUGGCACGCAAGUUUCUACCGGGCACCGUAAAUGUCCGACUGGAGCCGUUCGGGCGGCUAUAAACAGACCUCAGGCCCGAAGCGUGGCGGCACCUGCCGCCGGUGGUAAAAAAGAUCGGAAGAGCACACGUCU [U7G U8A G9A C12U C13U],1.08
14,GGGUCGGAAAUACAUAAUCGCGUGGAUAUGGCACGCAAGUUUCUACCGGGCACCGUAAAUGUCCGACUGGAGCCGUUCGGGCGGCUAUAAACAGACCUCAGGCCCGAAGCGUGGCGGCACCUGCCGCCGGUGGUAAAAAAGAUCGGAAGAGCACACGUCU [U7G U8A G9A U10A C12A],1.17
15,GGGUCGGAAAUGCAUAAUCGCGUGGAUAUGGCACGCAAGUUUCUACCGGGCACCGUAAAUGUCCGACUGGAGCCGUUCGGGCGGCUAUAAACAGACCUCAGGCCCGAAGCGUGGCGGCACCUGCCGCCGGUGGUAAAAAAGAUCGGAAGAGCACACGUCU [U7G U8A G9A U10A C12G],1.19
16,GGGUCGGAAAUUCAUAAUCGCGUGGAUAUGGCACGCAAGUUUCUACCGGGCACCGUAAAUGUCCGACUGGAGCCGUUCGGGCGGCUAUAAACAGACCUCAGGCCCGAAGCGUGGCGGCACCUGCCGCCGGUGGUAAAAAAGAUCGGAAGAGCACACGUCU [U7G U8A G9A U10A C12U],1.19
17,GGGUCGGAAAUAGAUAAUCGCGUGGAUAUGGCACGCAAGUUUCUACCGGGCACCGUAAAUGUCCGACUGGAGCCGUUCGGGCGGCUAUAAACAGACCUCAGGCCCGAAGCGUGGCGGCACCUGCCGCCGGUGGUAAAAAAGAUCGGAAGAGCACACGUCU [U7G U8A G9A U10A C12A C13G],1.12
18,GGGUCGGAAAUAAAUAAUCGCGUGGAUAUGGCACGCAAGUUUCUACCGGGCACCGUAAAUGUCCGACUGGAGCCGUUCGGGCGGCUAUAAACAGACCUCAGGCCCGAAGCGUGGCGGCACCUGCCGCCGGUGGUAAAAAAGAUCGGAAGAGCACACGUCU [U7G U8A G9A U10A C12A C13A],1.2

row,Variant,aptazyme ON/OFF ratio
1,GGGUCGGAAAUAUAUAAUCGCGUGGAUAUGGCACGCAAGUUUCUACCGGGCACCGUAAAUGUCCGACUGGAGCCGUUCGGGCGGCUAUAAACAGACCUCAGGCCCGAAGCGUGGCGGCACCUGCCGCCGGUGGUAAAAAAGAUCGGAAGAGCACACGUCU [U7G U8A G9A U10A C12A C13U],1.14
2,GGGUCGGAAAUCUAUAAUCGCGUGGAUAUGGCACGCAAGUUUCUACCGGGCACCGUAAAUGUCCGACUGGAGCCGUUCGGGCGGCUAUAAACAGACCUCAGGCCCGAAGCGUGGCGGCACCUGCCGCCGGUGGUAAAAAAGAUCGGAAGAGCACACGUCU [U7G U8A G9A U10A C13U],1.11
3,GGGUCGGAAAUCGAUAAUCGCGUGGAUAUGGCACGCAAGUUUCUACCGGGCACCGUAAAUGUCCGACUGGAGCCGUUCGGGCGGCUAUAAACAGACCUCAGGCCCGAAGCGUGGCGGCACCUGCCGCCGGUGGUAAAAAAGAUCGGAAGAGCACACGUCU [U7G U8A G9A U10A C13G],1.1
4,GGGUCGGAAAUCAAUAAUCGCGUGGAUAUGGCACGCAAGUUUCUACCGGGCACCGUAAAUGUCCGACUGGAGCCGUUCGGGCGGCUAUAAACAGACCUCAGGCCCGAAGCGUGGCGGCACCUGCCGCCGGUGGUAAAAAAGAUCGGAAGAGCACACGUCU [U7G U8A G9A U10A C13A],1.19
5,GGGUCGGAAAAGCAUAAUCGCGUGGAUAUGGCACGCAAGUUUCUACCGGGCACCGUAAAUGUCCGACUGGAGCCGUUCGGGCGGCUAUAAACAGACCUCAGGCCCGAAGCGUGGCGGCACCUGCCGCCGGUGGUAAAAAAGAUCGGAAGAGCACACGUCU [U7G U8A G9A U10A U11A C12G],1.26
6,GGGUCGGAAAAUCAUAAUCGCGUGGAUAUGGCACGCAAGUUUCUACCGGGCACCGUAAAUGUCCGACUGGAGCCGUUCGGGCGGCUAUAAACAGACCUCAGGCCCGAAGCGUGGCGGCACCUGCCGCCGGUGGUAAAAAAGAUCGGAAGAGCACACGUCU [U7G U8A G9A U10A U11A C12U],1.18
7,GGGUCGGAAAAACAUAAUCGCGUGGAUAUGGCACGCAAGUUUCUACCGGGCACCGUAAAUGUCCGACUGGAGCCGUUCGGGCGGCUAUAAACAGACCUCAGGCCCGAAGCGUGGCGGCACCUGCCGCCGGUGGUAAAAAAGAUCGGAAGAGCACACGUCU [U7G U8A G9A U10A U11A C12A],1.18
8,GGGUCGGAAAUCCAUAAUCGCGUGGAUAUGGCACGCAAGUUUCUACCGGGCACCGUAAAUGUCCGACUGGAGCCGUUCGGGCGGCUAUAAACAGACCUCAGGCCCGAAGCGUGGCGGCACCUGCCGCCGGUGGUAAAAAAGAUCGGAAGAGCACACGUCU [U7G U8A G9A U10A],1.77
9,GGGUCGGAAAACCAUAAUCGCGUGGAUAUGGCACGCAAGUUUCUACCGGGCACCGUAAAUGUCCGACUGGAGCCGUUCGGGCGGCUAUAAACAGACCUCAGGCCCGAAGCGUGGCGGCACCUGCCGCCGGUGGUAAAAAAGAUCGGAAGAGCACACGUCU [U7G U8A G9A U10A U11A],1.45
10,GGGUCGGAAAUGUAUAAUCGCGUGGAUAUGGCACGCAAGUUUCUACCGGGCACCGUAAAUGUCCGACUGGAGCCGUUCGGGCGGCUAUAAACAGACCUCAGGCCCGAAGCGUGGCGGCACCUGCCGCCGGUGGUAAAAAAGAUCGGAAGAGCACACGUCU [U7G U8A G9A U10A C12G C13U],1.1
11,GGGUCGGAAAUGAAUAAUCGCGUGGAUAUGGCACGCAAGUUUCUACCGGGCACCGUAAAUGUCCGACUGGAGCCGUUCGGGCGGCUAUAAACAGACCUCAGGCCCGAAGCGUGGCGGCACCUGCCGCCGGUGGUAAAAAAGAUCGGAAGAGCACACGUCU [U7G U8A G9A U10A C12G C13A],1.06
12,GGGUCGGAAAUGGAUAAUCGCGUGGAUAUGGCACGCAAGUUUCUACCGGGCACCGUAAAUGUCCGACUGGAGCCGUUCGGGCGGCUAUAAACAGACCUCAGGCCCGAAGCGUGGCGGCACCUGCCGCCGGUGGUAAAAAAGAUCGGAAGAGCACACGUCU [U7G U8A G9A U10A C12G C13G],1.09
13,GGGUCGGAAAAAAAUAAUCGCGUGGAUAUGGCACGCAAGUUUCUACCGGGCACCGUAAAUGUCCGACUGGAGCCGUUCGGGCGGCUAUAAACAGACCUCAGGCCCGAAGCGUGGCGGCACCUGCCGCCGGUGGUAAAAAAGAUCGGAAGAGCACACGUCU [U7G U8A G9A U10A U11A C12A C13A],1.09
14,GGGUCGGAAAAAUAUAAUCGCGUGGAUAUGGCACGCAAGUUUCUACCGGGCACCGUAAAUGUCCGACUGGAGCCGUUCGGGCGGCUAUAAACAGACCUCAGGCCCGAAGCGUGGCGGCACCUGCCGCCGGUGGUAAAAAAGAUCGGAAGAGCACACGUCU [U7G U8A G9A U10A U11A C12A C13U],1.12
15,GGGUCGGAAAAAGAUAAUCGCGUGGAUAUGGCACGCAAGUUUCUACCGGGCACCGUAAAUGUCCGACUGGAGCCGUUCGGGCGGCUAUAAACAGACCUCAGGCCCGAAGCGUGGCGGCACCUGCCGCCGGUGGUAAAAAAGAUCGGAAGAGCACACGUCU [U7G U8A G9A U10A U11A C12A C13G],1.04
16,GGGUCGGAAUUCAAUAAUCGCGUGGAUAUGGCACGCAAGUUUCUACCGGGCACCGUAAAUGUCCGACUGGAGCCGUUCGGGCGGCUAUAAACAGACCUCAGGCCCGAAGCGUGGCGGCACCUGCCGCCGGUGGUAAAAAAGAUCGGAAGAGCACACGUCU [U7G U8A G9A C13A],1.25
17,GGGUCGGAAUUCGAUAAUCGCGUGGAUAUGGCACGCAAGUUUCUACCGGGCACCGUAAAUGUCCGACUGGAGCCGUUCGGGCGGCUAUAAACAGACCUCAGGCCCGAAGCGUGGCGGCACCUGCCGCCGGUGGUAAAAAAGAUCGGAAGAGCACACGUCU [U7G U8A G9A C13G],1.09
18,GGGUCGGAAUUCUAUAAUCGCGUGGAUAUGGCACGCAAGUUUCUACCGGGCACCGUAAAUGUCCGACUGGAGCCGUUCGGGCGGCUAUAAACAGACCUCAGGCCCGAAGCGUGGCGGCACCUGCCGCCGGUGGUAAAAAAGAUCGGAAGAGCACACGUCU [U7G U8A G9A C13U],1.23
